The supplement of paper PMC11780869

System: Bacillus subtilis
Test: cleaved RNA product abundance (RNA/gDNA barcode ratio) relative to median wild-type variant (ratio to wild type); higher = more accumulation of the downstream cleavage product
Details: cleavage site: cggR-gapA (positions -7 to +36 mutated)
Experimental: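 MPRA in B. subtilis. Mutagenized RNase Y cleavage-site regions (9% mutation rate) were inserted into a barcoded reporter mRNA (truncated aprE or tetM). Cells were grown in LB at 37°C to OD600 0.3. The cleaved RNA isoform was gel-purified and its barcodes counted; the RNA:gDNA barcode ratio was normalised to the median wild-type variant, and the median over barcodes is reported per variant. The printed sequence is the variable window only; the reporter flanks are not printed.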

[1] = experiment (reporter, strain, medium): exp 2b: truncated aprE reporter, strain BJT200
[2] = experiment (reporter, strain, medium): exp 4a: truncated aprE reporter, strain BJT201 with 2% xylose (RNase J1 expressed)
[3] = experiment (reporter, strain, medium): exp 6: tetM reporter, strain 168

Row | Sequence | cleaved RNA product abundance [1] | cleaved RNA product abundance [2] | cleaved RNA product abundance [3]
1 | ACAGACGAAGGAGCCGCAAAGAAGATATTAAGGGATGAATAATCACTCAATATAAATATCTCTCACTTATTTAAA | 0.145 | 0.143 | 
2 | ACAGACGAAGGAGCCGCAAAGAAGATATTAAGGGATGAATAATCCATCAATATAAATATCTCTCACTTATTTAAA |  | 0.207 | 
3 | ACAGACGAAGGAGCCGCAAAGAAGATATTAAGGGATGAATAATCCCACAATATAAATATCTCTCACTTATTTAAA |  | 0.311 | 
4 | ACAGACGAAGGAGCCGCAAAGAAGATATTAAGGGATGAATAATCCCCCAATATAAATATCTCTCACTTATTTAAA |  | 0.32 | 
5 | ACAGACGAAGGAGCCGCAAAGAAGATATTAAGGGATGAATAATCCCTAAATATAAATATCTCTCACTTATTTAAA | 0.702 | 0.665 | 0.475
6 | ACAGACGAAGGAGCCGCAAAGAAGATATTAAGGGATGAATAATCCCTCAAAATAAATATCTCTCACTTATTTAAA | 0.15 | 0.205 | 
7 | ACAGACGAAGGAGCCGCAAAGAAGATATTAAGGGATGAATAATCCCTCAACATAAATATCTCTCACTTATTTAAA | 0.131 | 0.157 | 
8 | ACAGACGAAGGAGCCGCAAAGAAGATATTAAGGGATGAATAATCCCTCAATAAAAATATCTCTCACTTATTTAAA | 0.142 |  | 
9 | ACAGACGAAGGAGCCGCAAAGAAGATATTAAGGGATGAATAATCCCTCAATATAAAAATCTCTCACTTATTTAAA |  | 0.576 | 
10 | ACAGACGAAGGAGCCGCAAAGAAGATATTAAGGGATGAATAATCCCTCAATATAAAGATCTCTCACTTATTTAAA |  | 0.559 | 
11 | ACAGACGAAGGAGCCGCAAAGAAGATATTAAGGGATGAATAATCCCTCAATATAAATAACTCTCACTTATTTAAA |  | 1.07 | 
12 | ACAGACGAAGGAGCCGCAAAGAAGATATTAAGGGATGAATAATCCCTCAATATAAATATCTCTCACTTATTTAAA | 0.68 | 0.751 | 0.612
13 | ACAGACGAAGGAGCCGCAAAGAAGATATTAAGGGATGAATAATCCCTCAATATAAATGTCTCTCACTTATTTAAA | 0.338 | 0.393 | 
14 | ACAGACGAAGGAGCCGCAAAGAAGATATTAAGGGATGAATAATCCCTCAATTTAAATATCTCTCACTTATTTAAA | 0.157 |  | 
15 | ACAGACGAAGGAGCCGCAAAGAAGATATTAAGGGATGAATAATCCCTCACTATAAATATCTCTCACTTATTTAAA | 0.149 |  | 
16 | ACAGACGAAGGAGCCGCAAAGAAGATATTAAGGGATGAATAATCCCTCTATATAAATATCTCTCACTTATTTAAA | 0.362 | 0.406 | 
17 | ACAGACGAAGGAGCCGCAAAGAAGATATTAAGGGATGAATAATCCCTGAATATAAATATCTCTCACTTATTTAAA |  | 0.583 | 
18 | ACAGACGAAGGAGCCGCAAAGAAGATATTAAGGGATGAATAATCCCTTAATATAAATATCTCTCACTTATTTAAA |  | 0.192 | 
19 | ACAGACGAAGGAGCCGCAAAGAAGATATTAAGGGATGAATAATCCGTCAATATAAATATCTCTCACTTATTTAAA |  | 0.239 | 
20 | ACAGACGAAGGAGCCGCAAAGAAGATATTAAGGGATGAATAATCCTTCAATATAAATATCTCTCACTTATTTAAA |  | 0.762 | 
21 | ACAGACGAAGGAGCCGCAAAGAAGATATTAAGGGATGAATAATCGCTCAATATAAATATCTCTCACTTATTTAAA |  | 0.228 | 
22 | ACAGACGAAGGAGCCGCAAAGAAGATATTAAGGGATGAATAATTCCTCAATATAAATATCTCTCACTTATTTAAA |  | 1.05 | 
23 | ACAGACGAAGGAGCCGCAAAGAAGATATTAAGGGATGAATGATCCCTCAATATAAATATCTCTCACTTATTTAAA |  | 0.565 | 
24 | ACAGACGAAGGAGCCGCAAAGAAGATATTAAGGGATGAATTATCCCTCAATATAAATATCTCTCACTTATTTAAA |  | 0.572 | 
25 | ACAGACGAAGGAGCCGCAAAGAAGATATTAAGGGATGATTAATCCCTCAATATAAATATCTCTCACTTATTTAAA |  | 0.803 | 
26 | ACAGACGAAGGAGCCGCAAAGAAGATATTAAGGGATGTATAATCCCTCAATATAAATATCTCTCACTTATTTAAA |  | 0.603 | 

Row | Sequence | cleaved RNA product abundance [1] | cleaved RNA product abundance [2] | cleaved RNA product abundance [3]
27 | ACAGACGAAGGAGCCGCAAAGAAGATATTAAGGGATTAATAATCCCTCAATATAAATATCTCTCACTTATTTAAA |  | 0.608 | 
28 | ACAGACGAAGGAGCCGCAAAGAAGATATTAAGGGTTGAATAATCCCTCAATATAAATATCTCTCACTTATTTAAA | 0.43 |  | 
29 | ACAGACGAAGGAGCCGCAAAGAAGATATTAAGGTATGAATAATCCCTCAATATAAATATCTCTCACTTATTTAAA | 0.104 | 0.117 | 
30 | ACAGACGAAGGAGCCGCAAAGAAGATATTAAGGTATGAATAATCTCTCAATATAAATATCTCTCACTTATTTAAA | 0.105 |  | 
31 | ACAGACGAAGGAGCCGCAAAGAAGATATTAAGTGATGAATAATCCCTCAATATAAATATCTCTCACTTATTTAAA | 0.103 | 0.137 | 
32 | ACAGACGAAGGAGCCGCAAAGAAGATATTAATGGATGAATAATCCCTCAATATAAATATCTCTCACTTATTTAAA | 0.132 | 0.173 | 
33 | ACAGACGAAGGAGCCGCAAAGAAGATATTACGGGATGAATAATCCCTCAATATAAATATCTCTCACTTATTTAAA | 0.409 | 0.351 | 
34 | ACAGACGAAGGAGCCGCAAAGAAGATCTTAAGGGATGAATAATCCCTCAATATAAATATCTCTCACTTATTTAAA |  | 0.166 | 
35 | ACAGACGAAGGAGCCGCAAAGAAGATGTTAAGGGATGAATAATCCCTCAATATAAATATCTCTCACTTATTTAAA | 0.513 | 0.741 | 
36 | ACAGACGAAGGAGCCGCAAAGAAGATTTTAAGGCATGAATAATCCCTCAATATAAATATCTCTCACTTATTTAAA |  | 0.143 | 
37 | ACAGACGAAGGAGCCGCAAAGAAGCTAATAAGGGATGAATAATCCCTCAATATAAATATCTCTCACTTATTTAAA | 0.247 | 0.286 | 
38 | ACAGACGAAGGAGCCGCAAAGAAGCTATAAAGGGATGAATAATCCCTCAATATAAATATCTCTCACTTATTTAAA | 0.272 | 0.357 | 
39 | ACAGACGAAGGAGCCGCAAAGAAGCTATTAAAGGATGAATAATCCCTCAATATAAATATCTCTCACTTATTTAAA | 0.111 | 0.144 | 
40 | ACAGACGAAGGAGCCGCAAAGAAGCTATTAAGAGATGAATAATCCCTCAATATAAATATCTCTCACTTATTTAAA | 0.0974 | 0.123 | 
41 | ACAGACGAAGGAGCCGCAAAGAAGCTATTAAGCGATGAATAATCCCTCAATATAAATATCTCTCACTTATTTAAA |  | 0.0691 | 
42 | ACAGACGAAGGAGCCGCAAAGAAGCTATTAAGGAATGAATAATCCCTCAATATAAATATCTCTCACTTATTTAAA | 0.108 | 0.101 | 
43 | ACAGACGAAGGAGCCGCAAAGAAGCTATTAAGGCATGAATAATCCCTCAATATAAATATCTCTCACTTATTTAAA | 0.0626 |  | 
44 | ACAGACGAAGGAGCCGCAAAGAAGCTATTAAGGGAAGAATAATCCCTCAATATAAATATCTCTCACTTATTTAAA | 0.265 | 0.4 | 
45 | ACAGACGAAGGAGCCGCAAAGAAGCTATTAAGGGACGAATAATCCCTCAATATAAATATCTCTCACTTATTTAAA |  | 0.436 | 
46 | ACAGACGAAGGAGCCGCAAAGAAGCTATTAAGGGAGGAATAATCCCTCAATATAAATATCTCTCACTTATTTAAA | 0.287 | 0.24 | 
47 | ACAGACGAAGGAGCCGCAAAGAAGCTATTAAGGGATAAATAATCCCTCAATATAAATATCTCTCACTTATTTAAA | 0.479 |  | 
48 | ACAGACGAAGGAGCCGCAAAGAAGCTATTAAGGGATCAATAATCCCTCAATATAAATATCTCTCACTTATTTAAA |  | 0.425 | 
49 | ACAGACGAAGGAGCCGCAAAGAAGCTATTAAGGGATGAAAAATCCCTCAATATAAATATCTCTCACTTATTTAAA | 0.391 | 0.491 | 
50 | ACAGACGAAGGAGCCGCAAAGAAGCTATTAAGGGATGAACAATCCCTCAATATAAATATCTCTCACTTATTTAAA |  | 0.568 | 
51 | ACAGACGAAGGAGCCGCAAAGAAGCTATTAAGGGATGAATAATACCTCAATATAAATATCTCTCACTTATTTAAA | 0.0928 |  | 
